Among the data in the RNAGym collection of RNA variant scans (doi:10.1093/molbev/msab373) are reverse-splicing fitness values, retold here.

B1: Azoarcus group I ribozyme (parent)
chain: GUGCCUUGCGCCGGGAAACCACGCAAGGGAUGGUGUCAAAUUCGGCGAAACCUAAGCGCCCGCCCGGGCGUAUGGCAACGCCGAGCCAAGCUUCGGCGCCUGCGCCGAUGAAGGUGUAGAGACUAGACGGCACCCACCUAAGGCAAACGCUAUGGUGAAGGCAUAGUCCAGGGAGUGGCGAAAGUCACACAAACCGG

Variants of B1 are the subject of the series. The series can be described thus: reverse-splicing fitness (ratio to wild type); higher = more active; in vitro selection; Mg2+ level not given. The gist of the method:
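An in vitro group I ribozyme library with randomized positions was T7-transcribed and gel-purified. In triplicate, 10 pmol RNA in EPPS pH 7.5 was reacted with 50 pmoles of a 30-nt RNA substrate for 1 h at 37 °C across several added MgCl2 levels (1–48 mM), then stopped with EDTA. Products were reverse transcribed from a substrate-complementary primer, PCR-amplified and sequenced (HiSeq 4000). Fitness is a variant's read proportion after selection over that before, normalised to wild type.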
For the variant A111U A145C C150A C169G U176A, the reverse-splicing fitness is 0.0227.

For C82G A111C A120C C150U C169A U176G, the reverse-splicing fitness is 0.00909.

Turning to C82U A111C A120U A145C C150A C169G U176A, the reverse-splicing fitness is 0.00308.

For C82G A111U A120G A145C C150G C169A U176G, the reverse-splicing fitness worked out at 0.00582.

Turning to A120C A145U C150A U176C, the reverse-splicing fitness came out at 0.179.

With C82G A120C A145C C169A, the reverse-splicing fitness amounted to 0.00704.

For A111U A145C C150A C169G, the reverse-splicing fitness came out at 0.00935.

With C82G A111G A120G A145U C169U, the reverse-splicing fitness came to 0.012.

Consider C82U A145G C150U U176G, for which the reverse-splicing fitness turned out to be 0.0868.

Consider C82G A111C A120U A145G C150U C169G U176A, for which the reverse-splicing fitness turned out to be 0.00573.

Consider C82A A111G A120G A145U C150A C169A U176A, for which the reverse-splicing fitness is 0.0161.

C82U A111U A145C C150G C169G U176C: the reverse-splicing fitness was 0.00693.

In the case of C82A A111G A120G C150U C169A U176C, the reverse-splicing fitness is 0.0173.

For the variant C82A A111C A120U A145U C150G C169A U176A, the reverse-splicing fitness was 0.00379.

Turning to C82A A111U A120U A145G C150U, the reverse-splicing fitness came out at 0.0195.

As to C82U A111C A120U A145G C150A C169A U176C, the reverse-splicing fitness was found to be 0.00409.

As to C82U A111U A120C A145C C169A U176G, the reverse-splicing fitness came to 0.00392.

As for C82U A145U C169U, the reverse-splicing fitness came to 0.0139.

For A111U A120U A145U C169G U176A, the reverse-splicing fitness stood at 0.00482.

Regarding C82G A111U A145C C169G U176C, the reverse-splicing fitness worked out at 0.0144.

In the case of C82A A111U A145C C150G C169A U176A, the reverse-splicing fitness was 0.0086.

As for C82G A111G A120C A145C C150G C169U U176C, the reverse-splicing fitness was 0.0131.

As to C82G A111G A145G C169U, the reverse-splicing fitness is 0.0129.

In the case of C82U A111G A120G C150G C169U, the reverse-splicing fitness was found to be 0.00822.

As to A111G A120U A145G C150U C169A U176C, the reverse-splicing fitness turned out to be 0.00357.

As for C82U A111C A120C A145G C150A, the reverse-splicing fitness stood at 0.01.

Take C82U A111U A120C A145G C169U U176C: the reverse-splicing fitness came to 0.0162.

A120G A145U C150G C169U: the reverse-splicing fitness worked out at 0.0748.

As for A120U A145G C150U C169U U176A, the reverse-splicing fitness turned out to be 0.0753.

In the case of C82U A111C A120C A145U C169U U176C, the reverse-splicing fitness came to 0.0145.

In the case of C82A A111C A120G A145G C150A C169U U176A, the reverse-splicing fitness is 0.0154.

Take C82A A111G A120G A145U C150A C169A: the reverse-splicing fitness stood at 0.00837.

As to C82A A111G A120G A145C C150A U176A, the reverse-splicing fitness turned out to be 0.0107.

C82A A111G C150A C169U U176A: the reverse-splicing fitness amounted to 0.0172.

A111U A145U C150U C169A U176G: the reverse-splicing fitness turned out to be 0.00694.

Take A111C A120G A145C U176G: the reverse-splicing fitness turned out to be 0.00548.

Turning to C82A A111U A145G C150A C169U U176C, the reverse-splicing fitness was determined as 0.0161.

C82A A111U A120C A145U C150A U176A: the reverse-splicing fitness came out at 0.0108.

On to C82U A111U A120U C150G C169G, for which the reverse-splicing fitness worked out at 0.00584.

On to C82U A111G A120C A145C C150A U176G, for which the reverse-splicing fitness came to 0.0038.

As to C82A A111C A120C A145G C150G C169U, the reverse-splicing fitness stood at 0.00903.

Take C82G A111G A120C A145U C150G C169G: the reverse-splicing fitness was determined as 0.00697.

On to A111C A145G C150G, for which the reverse-splicing fitness stood at 0.212.

Turning to C82A A111C A120C A145G C150G U176G, the reverse-splicing fitness is 0.00679.

For the variant C82U A120U C150G U176C, the reverse-splicing fitness was determined as 0.00788.

Consider C82U A111C A145C C150G C169G, for which the reverse-splicing fitness stood at 0.00696.

In the case of C82U A111U A120C A145G C150G U176A, the reverse-splicing fitness turned out to be 0.00644.

As to C82U A111U A120C C169G U176G, the reverse-splicing fitness was 0.0049.

Consider A111U A120G A145C C150G C169G U176C, for which the reverse-splicing fitness stood at 0.00636.

With A111C A120U A145G C150A C169A, the reverse-splicing fitness worked out at 0.0061.

C82U A111C A120U C150U C169G U176G: the reverse-splicing fitness was 0.00228.

On to C82A A120C A145C C150U, for which the reverse-splicing fitness came to 0.035.

For the variant C82G A111G A120U A145G C150U C169A, the reverse-splicing fitness came out at 0.00681.

As to C150G C169G U176G, the reverse-splicing fitness is 0.0051.

In the case of C82U A111C A120C U176A, the reverse-splicing fitness came out at 0.0154.

Turning to C82A A111U A120U A145C C169U U176C, the reverse-splicing fitness was determined as 0.0036.

As for C82A A111U A120C C169U U176A, the reverse-splicing fitness was found to be 0.0177.

For the variant C82G A111U A120G C169U U176C, the reverse-splicing fitness stood at 0.0179.

Regarding A111C A120G A145U C150A C169U, the reverse-splicing fitness amounted to 0.018.

For the variant C82U A120G A145C C150U C169G U176G, the reverse-splicing fitness was 0.0041.

With A120U C150G, the reverse-splicing fitness was found to be 0.206.

With C82U A120G A145G C150U C169G, the reverse-splicing fitness worked out at 0.0218.

As to A111G A120U A145G C150U, the reverse-splicing fitness worked out at 0.611.

Consider C82A A111G A120U C150A C169A, for which the reverse-splicing fitness was 0.00447.

Regarding C82U A120G A145G U176G, the reverse-splicing fitness came out at 0.00485.

As to C82A A120U A145G C150A C169G, the reverse-splicing fitness was found to be 0.00494.

With A111C A120G A145C C169G, the reverse-splicing fitness was 0.201.

As to C82U A111G A120C A145U C150A U176A, the reverse-splicing fitness worked out at 0.0116.

In the case of C82U A111G A120C A145U C150G C169A U176A, the reverse-splicing fitness worked out at 0.00839.

For C82G A111C A120U C150A C169G U176C, the reverse-splicing fitness came to 0.00487.

Regarding C82G A145U C150A C169A U176C, the reverse-splicing fitness came out at 0.0106.

Consider A111C A120U A145U C150A C169G, for which the reverse-splicing fitness came out at 0.00604.

As to C82G A111C A120U C169U U176G, the reverse-splicing fitness amounted to 0.00247.

In the case of C82G A111G A120U A145C C150A U176G, the reverse-splicing fitness worked out at 0.00169.

Regarding A111U A120U A145U C150U C169G U176C, the reverse-splicing fitness was found to be 0.00596.

With C82G A111C A145C C169G, the reverse-splicing fitness came out at 0.00898.

With C82G A111U A120U A145U C150A U176A, the reverse-splicing fitness turned out to be 0.00457.

Consider C82G A111C A120U C150G C169U U176A, for which the reverse-splicing fitness was 0.00494.

As for C82A A111G A120U A145G U176G, the reverse-splicing fitness was determined as 0.00317.

In the case of C82G A111U A120G A145G C150U C169G U176G, the reverse-splicing fitness was 0.00526.

In the case of A111U A145U C169A U176A, the reverse-splicing fitness worked out at 0.0113.

Regarding C82G A111U A120C A145C C150U C169A U176A, the reverse-splicing fitness turned out to be 0.0164.

As for C82G A111U A120C A145C C150U C169A U176C, the reverse-splicing fitness is 0.0115.
